Test results taken from the Immune Epitope Database (IEDB).

Experiments:
[1] = target: HLA-B*18:01; assay: IEDB peptide-MHC binding, purified MHC/competitive/radioactivity; filed as Kd, often an IC50 or EC50 that approximates it; ≥ and ≤ were set here for values at or beyond the usual limits of such assays
[2] = target: HLA-B*40:01; assay: as above
[3] = target: HLA-B*40:02; assay: as above
[4] = target: HLA-B*44:02; assay: as above
[5] = target: HLA-B*44:03; assay: as above
[6] = target: HLA-B*45:01; assay: as above
[7] = target: HLA-A*32:01; assay: as above
[8] = target: HLA-B*15:01; assay: IEDB peptide-MHC binding, purified MHC/competitive/fluorescence; filed as Kd, often an IC50 or EC50 that approximates it; ≥ and ≤ were set here for values at or beyond the usual limits of such assays; settings: source organism: Paracoccus denitrificans PD1222
[9] = target: HLA-A*01:01; assay: IEDB peptide-MHC binding, purified MHC/competitive/radioactivity; filed as Kd, often an IC50 or EC50 that approximates it; ≥ and ≤ were set here for values at or beyond the usual limits of such assays
[10] = target: HLA-A*26:01; assay: as above
[11] = target: HLA-A*29:02; assay: as above
[12] = target: HLA-A*30:01; assay: as above
[13] = target: HLA-A*30:02; assay: as above
[14] = target: HLA-A*01:01; assay: IEDB peptide-MHC binding, purified MHC/direct/fluorescence; filed as Kd, often an IC50 or EC50 that approximates it; ≥ and ≤ were set here for values at or beyond the usual limits of such assays; settings: source organism: Influenza A virus (A/swine/Hong Kong/273/1994(H1N1))
[15] = target: HLA-A*02:12; assay: as above; settings: source organism: Influenza C virus
[16] = target: HLA-A*03:01; assay: as above; settings: source organism: Influenza A virus (A/swine/Hong Kong/273/1994(H1N1))
[17] = target: HLA-B*07:02; assay: as above; settings: source organism: Influenza A virus (A/swine/Hong Kong/273/1994(H1N1))
[18] = target: HLA-B*15:01; assay: as above; settings: source organism: Influenza A virus (A/swine/Hong Kong/273/1994(H1N1))
[19] = target: HLA-B*27:05; assay: as above; settings: source organism: Influenza A virus (A/swine/Hong Kong/273/1994(H1N1))
[20] = target: HLA-B*58:01; assay: as above; settings: source organism: Influenza A virus (A/swine/Hong Kong/273/1994(H1N1))
[21] = source organism: Mammarenavirus brazilense
[22] = source organism: SARS coronavirus Tor2
[23] = source organism: Dengue virus 1 Singapore/S275/1990
[24] = source organism: Mammarenavirus machupoense
[25] = source organism: Mammarenavirus whitewaterense
[26] = source organism: Mammarenavirus lassaense

AENDIVEAL
Kd [1, 21]: 10.8 µM
Kd [2, 21]: 0.00587 µM
Kd [3, 21]: 0.0252 µM
Kd [4, 21]: 0.0435 µM
Kd [5, 21]: 0.108 µM
Kd [6, 21]: 1.03 µM

AEWVLAYMLF
Kd [1, 22]: 0.327 µM
Kd [2, 22]: 0.152 µM
Kd [3, 22]: 0.0192 µM
Kd [4, 22]: 0.0162 µM
Kd [5, 22]: 0.00916 µM
Kd [6, 22]: 0.041 µM

AGILARWGSF
Kd [7, 23]: 1.14 µM
Kd [4, 23]: 12.6 µM

ALAAAGAAY
Kd [8]: 0.123 µM

ATMANEMGF
Kd ([7]; source organism: Dengue virus 2 Jamaica/1409/1983): 0.138 µM

CEEMLDNRAT
Kd [1, 22]: ≥ 46.1 µM
Kd [2, 22]: 18.3 µM
Kd [3, 22]: 8.59 µM
Kd [4, 22]: 0.56 µM
Kd [5, 22]: 10.3 µM
Kd [6, 22]: 0.139 µM

DESGLNISGY
Kd [1, 21]: 0.199 µM
Kd [2, 21]: ≥ 69.5 µM
Kd [3, 21]: ≥ 70.8 µM
Kd [4, 21]: 12.8 µM
Kd [5, 21]: 7.83 µM
Kd [6, 21]: ≥ 70 µM

DESKKEINLL
Kd [1, 24]: 2.88 µM
Kd [2, 24]: ≥ 69.5 µM
Kd [3, 24]: ≥ 70.8 µM
Kd [4, 24]: ≥ 70.2 µM
Kd [5, 24]: ≥ 70.1 µM
Kd [6, 24]: ≥ 70 µM

DIMALIVSI
Kd ([7]; source organism: Vaccinia virus): 0.114 µM

DLGLLYTAKY
Kd [9, 25]: 13.7 µM
Kd [10, 25]: 1 µM
Kd [11, 25]: 0.386 µM
Kd [12, 25]: ≥ 58.4 µM
Kd [13, 25]: 0.0369 µM
Kd [7, 25]: ≥ 69.9 µM

EEAIRHVRA
Kd [1, 22]: ≥ 55.7 µM
Kd [2, 22]: 5.59 µM
Kd [3, 22]: 5.53 µM
Kd [4, 22]: 2.78 µM
Kd [5, 22]: 5.81 µM
Kd [6, 22]: 0.0398 µM

EEPVALLPLS
Kd [1, 24]: 15.5 µM
Kd [2, 24]: 5.16 µM
Kd [3, 24]: 4.41 µM
Kd [4, 24]: 8.42 µM
Kd [5, 24]: 2.94 µM
Kd [6, 24]: 0.795 µM

EEVVLKNGEL
Kd [1, 22]: 0.381 µM
Kd [2, 22]: 0.00633 µM
Kd [3, 22]: 0.0139 µM
Kd [4, 22]: 0.0467 µM
Kd [5, 22]: 0.0148 µM
Kd [6, 22]: 1.33 µM

EWIFRALKY
Kd [9, 21]: ≥ 37.3 µM
Kd [10, 21]: 7.08 µM
Kd [11, 21]: 0.183 µM
Kd [12, 21]: ≥ 38 µM
Kd [13, 21]: 7.75 µM
Kd [7, 21]: ≥ 77.8 µM

FEVLAVEDT
Kd [1, 22]: 3.4 µM
Kd [2, 22]: 10.9 µM
Kd [3, 22]: 1.87 µM
Kd [4, 22]: ≥ 47.9 µM
Kd [5, 22]: 13.5 µM
Kd [6, 22]: 11.6 µM

GESVKTQFNY
Kd [1, 22]: ≥ 20.1 µM
Kd [2, 22]: 11.6 µM
Kd [3, 22]: 0.486 µM
Kd [4, 22]: 0.479 µM
Kd [5, 22]: 0.295 µM
Kd [6, 22]: 7.63 µM

GMFNMLSTV
Kd [14]: ≥ 20 µM
Kd [15]: 0.049 µM
Kd [16]: ≥ 20 µM
Kd [17]: ≥ 20 µM
Kd [18]: 0.105 µM
Kd [19]: 10.1 µM
Kd [20]: ≥ 20 µM

IGILLTWLGL
Kd ([7]; source organism: Dengue virus 1 Brazil/97-11/1997): ≥ 38.8 µM

ILCYFILIF
Kd ([7]; source organism: Vaccinia virus WR): 11.5 µM

KEAYCQEFSL
Kd [1, 26]: ≥ 36.9 µM
Kd [2, 26]: 0.0883 µM
Kd [3, 26]: 0.00968 µM
Kd [4, 26]: 4.18 µM
Kd [5, 26]: 16.1 µM
Kd [6, 26]: 5.69 µM
